We go through 30 molecules from patent US20190062438A1 (CSL, published 2019).

Changes are numbered by the printed parent chain.

The chains are these.
T1: human CD131 (human, UniProt P32927 17-897)
T1 sequence: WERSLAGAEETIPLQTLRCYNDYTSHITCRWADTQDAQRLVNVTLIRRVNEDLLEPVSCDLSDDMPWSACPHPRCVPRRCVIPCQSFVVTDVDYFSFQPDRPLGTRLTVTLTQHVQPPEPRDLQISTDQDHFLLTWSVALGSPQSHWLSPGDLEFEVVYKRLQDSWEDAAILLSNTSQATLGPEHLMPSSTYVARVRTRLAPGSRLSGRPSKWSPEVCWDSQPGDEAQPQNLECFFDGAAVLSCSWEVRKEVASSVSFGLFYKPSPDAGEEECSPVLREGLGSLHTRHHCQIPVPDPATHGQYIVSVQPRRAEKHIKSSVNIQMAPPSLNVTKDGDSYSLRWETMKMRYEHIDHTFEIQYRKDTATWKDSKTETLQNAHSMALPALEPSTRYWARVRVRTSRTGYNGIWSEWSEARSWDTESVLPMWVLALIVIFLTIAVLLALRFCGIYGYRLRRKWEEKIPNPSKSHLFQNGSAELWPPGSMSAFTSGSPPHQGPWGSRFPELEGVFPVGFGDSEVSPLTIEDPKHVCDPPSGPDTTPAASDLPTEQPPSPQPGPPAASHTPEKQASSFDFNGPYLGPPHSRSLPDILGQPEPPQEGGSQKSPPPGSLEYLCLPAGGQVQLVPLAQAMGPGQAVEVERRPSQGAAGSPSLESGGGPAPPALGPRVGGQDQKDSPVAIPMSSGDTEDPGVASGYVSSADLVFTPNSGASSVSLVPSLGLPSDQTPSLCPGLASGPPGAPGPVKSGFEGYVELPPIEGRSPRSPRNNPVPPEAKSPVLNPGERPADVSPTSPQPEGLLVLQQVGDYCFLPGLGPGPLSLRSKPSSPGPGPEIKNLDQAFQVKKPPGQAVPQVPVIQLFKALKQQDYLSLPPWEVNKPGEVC

B1: 9A2-VR14 (antibody, V domains shown)
VH: EVQLLESGGGLVQPGGSLRLSCAASGFTFSHYHMLWVRQAPGKGLEWVSSIRSSGGFTYYADSVKGRFTISRDNSKNTLYLQMNSLRAEDTAVYYCARFYDSFFDIWGQGTMVTVSS
VL: DIQMTQSPSSVSASVGDRVTITCRASQGISSWLAWYQQKPGKAPKLLIYAASSLQSGVPSRFSGSGSGTDFTLTISSLQPEDFATYYCGKPVFDPITFGQGTRLEIKR
B2: 9A2-VR49 (antibody, V domains shown)
VH: B1 VH with D101S, S102D, F103H, D105N, I106P
VL: B1 VL with G89Q, K90Q, P91A, V92N, F93S, D94F
B3: 9A2-VR46 (antibody, V domains shown)
VH: B1 VH with D101S, S102D, F103H, D105R, I106E
VL: B1 VL with G89Q, K90Q, P91A, V92N, F93S, D94F
B4: 9A2-VR23 (antibody, V domains shown)
VH: B1 VH with S30E, H31W, H33R, M34V, L35H
VL: B1 VL with G89Q, K90Q, P91A, V92N, F93S, D94F
B5: 9A2-VR43 (antibody, V domains shown)
VH: B1 VH with D101S, S102D, F103H
VL: B1 VL with G89Q, K90Q, P91A, V92N, F93S, D94F
B6: 9A2-VR22 (antibody, V domains shown)
VH: B1 VH with S30Q, H31W, H33R, M34V, L35H
VL: B1 VL with G89Q, K90Q, P91A, V92N, F93S, D94F
B7: 9A2-VR47 (antibody, V domains shown)
VH: B1 VH with D101S, S102D, F103H, D105S, I106P
VL: B1 VL with G89Q, K90Q, P91A, V92N, F93S, D94F
B8: 9A2-VR32 (antibody, V domains shown)
VH: B1 VH with R52S, S53G, G55V, G56R, F57S
VL: B1 VL with G89Q, K90Q, P91A, V92N, F93S, D94F
B9: 9A2-VR34 (antibody, V domains shown)
VH: B1 VH with R52S, S53G, G55H, G56F, F57P
VL: B1 VL with G89Q, K90Q, P91A, V92N, F93S, D94F
B10: 9A2-VR20 (antibody, V domains shown)
VH: B1 VH with S30N, H33R, M34V, L35H
VL: B1 VL with G89Q, K90Q, P91A, V92N, F93S, D94F
B11: 9A2-VR26 (antibody, V domains shown)
VH: B1 VH with S30I, H33R, M34V, L35H
VL: B1 VL with G89Q, K90Q, P91A, V92N, F93S, D94F
B12: 9A2-VR38 (antibody, V domains shown)
VH: B1 VH with R52N, S53G, S54M, G56A, F57T
VL: B1 VL with G89Q, K90Q, P91A, V92N, F93S, D94F
B13: 9A2-VR16 (antibody, V domains shown)
VH: B1 VH
VL: B1 VL with K90I, F93L, D94G
B14: 9A2-VR48 (antibody, V domains shown)
VH: B1 VH with D101S, S102D, F103H, D105K, I106P
VL: B1 VL with G89Q, K90Q, P91A, V92N, F93S, D94F
B15: 9A2-VR44 (antibody, V domains shown)
VH: B1 VH with F103H
VL: B1 VL with G89Q, K90Q, P91A, V92N, F93S, D94F
B16: 9A2-VR42 (antibody, V domains shown)
VH: B1 VH with R52G, S53G, S54D, G55I, G56R, F57Q
VL: B1 VL with G89Q, K90Q, P91A, V92N, F93S, D94F
B17: 9A2-VR37 (antibody, V domains shown)
VH: B1 VH with R52S, S53G, G55M, G56W, F57S
VL: B1 VL with G89Q, K90Q, P91A, V92N, F93S, D94F
B18: 9A2-VR33 (antibody, V domains shown)
VH: B1 VH with R52N, S53G, G56W, F57T
VL: B1 VL with G89Q, K90Q, P91A, V92N, F93S, D94F
B19: 9A2-VR19 (antibody, V domains shown)
VH: B1 VH
VL: B1 VL with K90I, V92I, F93L, D94G
B20: 9A2-VR45 (antibody, V domains shown)
VH: B1 VH with D101S, S102D, F103N
VL: B1 VL with G89Q, K90Q, P91A, V92N, F93S, D94F
B21: 9A2-VR50 (antibody, V domains shown)
VH: B1 VH with D101S, S102D, F103H, D105A, I106P
VL: B1 VL with G89Q, K90Q, P91A, V92N, F93S, D94F
B22: 9A2-VR36 (antibody, V domains shown)
VH: B1 VH with R52G, S53G, S54D, G55K, G56R, F57Q
VL: B1 VL with G89Q, K90Q, P91A, V92N, F93S, D94F
B23: 9A2-VR40 (antibody, V domains shown)
VH: B1 VH with R52N, S53G, S54Y, G56I, F57Q
VL: B1 VL with G89Q, K90Q, P91A, V92N, F93S, D94F
B24: 9A2-VR28 (antibody, V domains shown)
VH: B1 VH with S30V, H33R, M34V, L35H
VL: B1 VL with G89Q, K90Q, P91A, V92N, F93S, D94F
B25: 9A2-VR41 (antibody, V domains shown)
VH: B1 VH with R52N, S53G, S54K, G56W, F57T
VL: B1 VL with G89Q, K90Q, P91A, V92N, F93S, D94F
B26: 9A2-VR1 (antibody, V domains shown)
VH: B1 VH
VL: B1 VL with S30R, S31P, W32F, L33M, G89Q, K90Q, P91A, V92N, F93S, D94F
B27: 9A2-VR31 (antibody, V domains shown)
VH: B1 VH with R52S, S53G, S54A, G55Q, G56W, F57S
VL: B1 VL with G89Q, K90Q, P91A, V92N, F93S, D94F
B28: 9A2-VR35 (antibody, V domains shown)
VH: B1 VH with R52N, S53G, S54F, G56R, F57N
VL: B1 VL with G89Q, K90Q, P91A, V92N, F93S, D94F
B29: 9A2-VR21 (antibody, V domains shown)
VH: B1 VH with S30M, H33R, M34V, L35H
VL: B1 VL with G89Q, K90Q, P91A, V92N, F93S, D94F
B30: 9A2-VR27 (antibody, V domains shown)
VH: B1 VH with S30T, H33R, M34V, L35H
VL: B1 VL with G89Q, K90Q, P91A, V92N, F93S, D94F

The target in this assay is T1, human CD131. Nature of the assay: cell-based or functional assay.
As to B1, the “IC50 GM-CSF, TF-1 proliferation” value is above 1000 nM. Consider B2, for which the “IC50 GM-CSF, TF-1 proliferation” value stood at 23.4 nM. As to B3, the “IC50 GM-CSF, TF-1 proliferation” value was 23.4 nM. Consider B4, for which the “IC50 GM-CSF, TF-1 proliferation” value was found to be 60 nM and the “pStat5 IC50 GM-CSF, TF-1 bla reporter” value was 24 nM. Consider B5, for which the “IC50 GM-CSF, TF-1 proliferation” value stood at 53.7 nM. The same measure, in the same setting: with B6 the figure was 39.9 nM; with B7, 27.2 nM; with B8, 31.2 nM.

Take B9: the “IC50 GM-CSF, TF-1 proliferation” value came to 184 nM. In the case of B10, the “IC50 GM-CSF, TF-1 proliferation” value was found to be 79.3 nM.

Take B11: the “IC50 GM-CSF, TF-1 proliferation” value came out at 4.6 nM and the “pStat5 IC50 GM-CSF, TF-1 bla reporter” value amounted to 23.6 nM. With B12, the “IC50 GM-CSF, TF-1 proliferation” value came to 5 nM.

Regarding B13, the “IC50 GM-CSF, TF-1 proliferation” value was above 1000 nM. For B14, the “IC50 GM-CSF, TF-1 proliferation” value stood at 11.7 nM. For the molecule B15, the “IC50 GM-CSF, TF-1 proliferation” value amounted to 36.4 nM. On to B16, for which the “IC50 GM-CSF, TF-1 proliferation” value is 54.7 nM. As to B17, the “IC50 GM-CSF, TF-1 proliferation” value was 48.1 nM.

As for B18, the “IC50 GM-CSF, TF-1 proliferation” value was found to be 602 nM.

As to B19, the “IC50 GM-CSF, TF-1 proliferation” value is above 1000 nM.

With B20, the “IC50 GM-CSF, TF-1 proliferation” value amounted to 88.7 nM. Take B21: the “IC50 GM-CSF, TF-1 proliferation” value was determined as 46.5 nM.

Regarding B22, the “IC50 GM-CSF, TF-1 proliferation” value was 38.1 nM. Regarding B23, the “IC50 GM-CSF, TF-1 proliferation” value was found to be 5.7 nM. B24: the “IC50 GM-CSF, TF-1 proliferation” value stood at 47.9 nM.

For the molecule B25, the “IC50 GM-CSF, TF-1 proliferation” value is 7 nM. Still for that read-out and setting: with B26 the figure was 294 nM; with B27, 233 nM; with B28, 76 nM. Take B29: the “IC50 GM-CSF, TF-1 proliferation” value was determined as 99.8 nM. For B30, the “IC50 GM-CSF, TF-1 proliferation” value worked out at 4.9 nM and the “pStat5 IC50 GM-CSF, TF-1 bla reporter” value was found to be 8.5 nM.
